These results are taken from paper PMC3763809.

Experiment [1] addresses H3(1-132)-LEEGLG nucleosome, first Glu of the tail to Ala (Drosophila | human) (UniProt P02299). Kind of experiment: ITC.
Experiment [2] concerns the target H3(1-132)-LEEGLG nucleosome, second Glu of the tail to Ala (Drosophila | human) (UniProt P02299). Kind of experiment: ITC. On the technique in general: ITC needs no label: the signal is the heat of the interaction.

CENP-C central region, CENP-C(444-537), sequence (Q03188 444-537): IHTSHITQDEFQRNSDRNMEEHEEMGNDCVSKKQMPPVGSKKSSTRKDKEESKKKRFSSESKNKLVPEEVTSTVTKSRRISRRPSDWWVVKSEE

As to “CENP-C central region, CENP-C(444-537) (from UniProt Q03188 444-537) (domain or fragment)”, the factor of change of Kd against the H3(1-132)-LEEGLG nucleosome came to 3 fold in experiment [1] and 10 fold in experiment [2].
